The chains are these.
B1: HDV Ribozyme (parent)
chain: GGCCGGCAUGGUCCCAGCCUCCUCGCUGGCGCCGGCUGGGCAACAUUCCGAGGGGACCGUCCCCUCGGUAAUGGCGAAUGGGACCCA

The variants in the data set derive from B1. Briefly: self-cleavage, relative activity (ratio to wild type); higher = more cleavage; co-transcriptional.
As for C24U A77C, the self-cleavage is 0.119.

C36U G40A: the self-cleavage amounted to 0.831.

As for G59C C84A, the self-cleavage came to 0.912.

Take A56G A71C: the self-cleavage is 0.534.

On to G53C G81A, for which the self-cleavage is 0.369.

Consider G1U G53U, for which the self-cleavage was 0.355.

Turning to U47G G74C, the self-cleavage was determined as 0.222.

G2A G54C: the self-cleavage worked out at 0.296.

Consider C7G A87G, for which the self-cleavage was 0.381.

Consider G10A G82A, for which the self-cleavage came to 0.176.

Take C41G A71U: the self-cleavage worked out at 0.554.

For the variant G50A C75A, the self-cleavage turned out to be 0.178.

In the case of C30U G81C, the self-cleavage was found to be 0.148.

Consider G6A A70C, for which the self-cleavage was 0.527.

Turning to U9C C22G, the self-cleavage was 0.

Turning to A56C A71G, the self-cleavage was found to be 0.98.

As for A71G G81C, the self-cleavage came out at 0.131.

Consider G17U G34U, for which the self-cleavage was 0.0554.

In the case of C14A C75A, the self-cleavage was determined as 0.208.

With U69A A71G, the self-cleavage was 0.731.

Take A16C U79G: the self-cleavage amounted to 0.692.

Turning to A8U C21G, the self-cleavage was determined as 0.119.

For the variant C32A G34A, the self-cleavage stood at 0.032.

Consider C36U U65C, for which the self-cleavage amounted to 0.712.

With C30U A42U, the self-cleavage amounted to 0.0615.

Consider G6C C85U, for which the self-cleavage was 0.401.

With G11C C85A, the self-cleavage turned out to be 1.18.

For C32A A83U, the self-cleavage turned out to be 0.

Take A45G G80A: the self-cleavage came out at 0.177.

As to C7G G50U, the self-cleavage came to 0.237.

Turning to C15G C30U, the self-cleavage came out at 0.145.

As for C14A U46C, the self-cleavage is 0.237.

In the case of C33G G34U, the self-cleavage is 0.0997.

In the case of G54C U69C, the self-cleavage is 0.99.

Turning to C3A G54A, the self-cleavage was found to be 0.369.

Take G74U A77G: the self-cleavage came out at 0.312.

Consider C4U C36G, for which the self-cleavage turned out to be 0.0707.

Consider G10U G11C, for which the self-cleavage came out at 0.237.

As for C33U A51U, the self-cleavage amounted to 0.848.

As to G6A C15A, the self-cleavage turned out to be 0.375.

For the variant C33A C44U, the self-cleavage is 0.0707.

As for G39A C75G, the self-cleavage worked out at 0.143.

Turning to U60C G82A, the self-cleavage worked out at 0.427.

For the variant G25C A45U, the self-cleavage came to 0.128.

On to C7G U65A, for which the self-cleavage was found to be 0.

For C15U G74U, the self-cleavage came to 0.485.

Consider G40A C62A, for which the self-cleavage stood at 0.95.

On to U12C U65A, for which the self-cleavage amounted to 0.489.

Regarding C21G C66A, the self-cleavage came to 0.0739.

Take U23C A56G: the self-cleavage turned out to be 0.87.

For the variant G55A G74C, the self-cleavage was found to be 0.208.

On to C7G C15U, for which the self-cleavage was 0.0978.

Turning to C21A C58A, the self-cleavage was 0.104.

U9C C21U: the self-cleavage amounted to 0.214.

With U9C C21G, the self-cleavage was 0.277.

As to C4U A87C, the self-cleavage came out at 0.708.

Regarding G17C G80C, the self-cleavage came to 0.0906.

For G6A G59U, the self-cleavage came to 0.755.

Regarding G40A A42C, the self-cleavage was 0.543.

Turning to U9A C84G, the self-cleavage came out at 0.554.

Regarding C36U A77G, the self-cleavage amounted to 0.475.

For the variant C57U G81C, the self-cleavage was found to be 0.0604.

In the case of G2A C44G, the self-cleavage is 0.0185.

On to G54C U79G, for which the self-cleavage stood at 0.475.

In the case of C48A A83C, the self-cleavage was 0.317.

In the case of C36U A83C, the self-cleavage worked out at 0.185.

As for C24G U72C, the self-cleavage came out at 0.111.

For G28C A87G, the self-cleavage was 0.125.

Take A45G A51C: the self-cleavage was 0.987.

U37A A56U: the self-cleavage amounted to 0.332.

As to G5C C57G, the self-cleavage came out at 0.35.

As for C30G G31U, the self-cleavage is 0.126.

As for G28A C85A, the self-cleavage turned out to be 0.0369.

As for G2U A45G, the self-cleavage turned out to be 0.

On to G55A C75A, for which the self-cleavage turned out to be 0.254.

On to C22A G76U, for which the self-cleavage worked out at 0.554.

For U12C C21G, the self-cleavage was 0.0791.

With C21G C32A, the self-cleavage stood at 0.0415.

C3U C58A: the self-cleavage was determined as 0.818.

Take G1A A70C: the self-cleavage was 0.192.

With G10C A45G, the self-cleavage stood at 0.791.

On to G68C C84G, for which the self-cleavage came to 0.639.

Turning to C15A A70G, the self-cleavage was 0.755.

As to C19U C21G, the self-cleavage stood at 0.0339.

Regarding C36G, the self-cleavage is 0.13.

For the variant G11A G80C, the self-cleavage stood at 0.158.

C26A C85A: the self-cleavage worked out at 0.997.

Regarding C13A C26U, the self-cleavage was determined as 0.764.

In the case of C19G G34U, the self-cleavage stood at 0.095.

C22A C86A: the self-cleavage turned out to be 0.448.

For G76U G80U, the self-cleavage was found to be 0.407.

As to A8C C14G, the self-cleavage is 0.237.

As for G29A A51G, the self-cleavage was 0.366.

As for U27A C32U, the self-cleavage was found to be 0.923.

On to G2U C57A, for which the self-cleavage was determined as 0.156.

For the variant C15U C41A, the self-cleavage was found to be 0.962.

Take C49A G59C: the self-cleavage turned out to be 1.08.

With C26G C62G, the self-cleavage worked out at 0.516.

In the case of G59A A83C, the self-cleavage was found to be 0.554.

With U23G G68A, the self-cleavage was 0.565.

Consider C26U G53A, for which the self-cleavage is 1.16.

For the variant A78G C85A, the self-cleavage came to 0.86.

In the case of G29C A45C, the self-cleavage stood at 0.111.

For G10A A16U, the self-cleavage stood at 0.929.

C19A G68C: the self-cleavage was 0.149.

As for C63U G81A, the self-cleavage came out at 0.521.

Take U9A C41U: the self-cleavage was found to be 1.07.

Turning to G53C U79G, the self-cleavage came out at 0.443.

Take U12A G25U: the self-cleavage came to 0.133.

Regarding U46A G53U, the self-cleavage amounted to 0.712.

As to G35A C58A, the self-cleavage was 0.46.

Turning to G35A C58G, the self-cleavage was found to be 0.594.

Take G28A U47A: the self-cleavage came to 0.

Turning to C26U C48G, the self-cleavage stood at 1.07.

Take G29U U69G: the self-cleavage is 0.0615.

Regarding A43U U46G, the self-cleavage came out at 0.185.

Turning to G6U U9C, the self-cleavage worked out at 0.465.

Consider C30G A43U, for which the self-cleavage was 0.194.

As to C4U C57G, the self-cleavage came to 0.629.

Turning to G25C U79C, the self-cleavage stood at 0.0923.

G25C C58A: the self-cleavage is 0.104.

Take C15A G50C: the self-cleavage stood at 0.404.

In the case of G50C G52C, the self-cleavage was 0.554.

In the case of A8U G50C, the self-cleavage came out at 0.939.

For the variant C7U G11C, the self-cleavage was found to be 0.119.

With G28C A77U, the self-cleavage was 0.107.

For the variant G34A A77G, the self-cleavage came to 0.0639.

Take G59C U79C: the self-cleavage is 0.431.

Turning to C48G U60C, the self-cleavage amounted to 0.969.

On to C57G U65A, for which the self-cleavage stood at 1.11.

As to A42C C49U, the self-cleavage was 0.115.

For C21U C58U, the self-cleavage amounted to 0.203.

For U47A C58G, the self-cleavage was determined as 0.855.

Consider U9A G68A, for which the self-cleavage was 0.955.

With G10U U12C, the self-cleavage came out at 0.0755.

G34A U79C: the self-cleavage came to 0.0773.

For the variant C48U C58U, the self-cleavage came to 0.904.

Turning to C7A C36A, the self-cleavage turned out to be 0.0923.

As to G39C G50U, the self-cleavage was found to be 0.345.

Regarding U20A U65A, the self-cleavage was determined as 0.0504.

Turning to U37C C57U, the self-cleavage amounted to 0.875.

Take A45U C86A: the self-cleavage is 0.77.

Consider A43U C49G, for which the self-cleavage came out at 0.516.

For G17A C36U, the self-cleavage came to 0.272.

For the variant C15A C41U, the self-cleavage amounted to 0.399.

Regarding G17C G40A, the self-cleavage was 0.19.

On to U9A U20A, for which the self-cleavage came out at 0.185.

Take G29A C62A: the self-cleavage is 0.391.

In the case of G29C U72A, the self-cleavage was 0.

For the variant G54A C64U, the self-cleavage was 0.696.

Regarding G6A G50A, the self-cleavage worked out at 0.785.

As for G31C G38A, the self-cleavage stood at 0.0692.

With C30G C62A, the self-cleavage came out at 0.122.

In the case of C33G U47A, the self-cleavage came out at 0.227.

Take U9G G59U: the self-cleavage is 1.06.

Regarding C22U U27G, the self-cleavage was found to be 0.554.

With C64A U72A, the self-cleavage amounted to 0.491.

As for C49A U60G, the self-cleavage was 1.33.

With G39U U72A, the self-cleavage was 0.13.

For the variant G10C C86U, the self-cleavage is 1.03.

Consider G50U G81A, for which the self-cleavage is 0.609.

In the case of G2U C13G, the self-cleavage was determined as 0.

For the variant G28A A56G, the self-cleavage was 0.135.

Take G1U C33G: the self-cleavage came to 0.248.

Take G1U G29U: the self-cleavage was found to be 0.308.

For the variant C3G C30U, the self-cleavage worked out at 0.156.

For the variant C26A C63A, the self-cleavage turned out to be 0.724.

Values taken from the RNAGym collection of RNA variant scans (doi:10.7554/elife.80360).
